Data reported in patent publication US20030068675, “Position dependent recognition of GNN nucleotide triplets by zinc fingers” (published 2003).

Experiments:
Assay in all cases: EMSA
Settings in all cases: tags: MBP fusion
ZFP SBS#612 = target: T1, ZFP SBS#612 (synthetic)
T1 chain: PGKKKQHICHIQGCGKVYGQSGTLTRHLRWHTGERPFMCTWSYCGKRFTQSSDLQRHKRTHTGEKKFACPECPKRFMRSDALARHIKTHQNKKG
Procedure, shortened: (§1)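 Purified ZFP was titrated against labeled double-stranded target (1 nM or lower, at least 10-fold below expected Kd) carrying the natural binding site with flanks. Binding buffer was 10 mM Tris pH 7.5, 100 mM KCl, 1 mM MgCl2, 0.1 mM ZnCl2, 5 mM DTT, 10% glycerol, 0.02% BSA, with equilibration for at least 45 min. Bound and free target were separated on a 10% polyacrylamide gel.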

ZFP SBS#611 = ZFP SBS#611 (synthetic)
Procedure, shortened: as §1

ZFP SBS#683 = target: T2, ZFP SBS#683 (synthetic)
T2 chain: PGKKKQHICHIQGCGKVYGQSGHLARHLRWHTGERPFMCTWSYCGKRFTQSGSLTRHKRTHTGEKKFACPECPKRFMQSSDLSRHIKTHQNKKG
Procedure, shortened: as §1

ZFP SBS#684 = ZFP SBS#684 (synthetic)
Procedure, shortened: as §1

ZFP SBS#685 = ZFP SBS#685 (synthetic)
Procedure, shortened: as §1

ZFP SBS#681 = ZFP SBS#681 (synthetic)
Procedure, shortened: as §1

ZFP SBS#682 = ZFP SBS#682 (synthetic)
Procedure, shortened: as §1

ZFP SBS#369 = target: T3, ZFP SBS#369 (synthetic)
T3 chain: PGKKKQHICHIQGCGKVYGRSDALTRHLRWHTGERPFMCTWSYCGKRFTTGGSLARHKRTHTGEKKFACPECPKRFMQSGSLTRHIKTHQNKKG
Procedure, shortened: as §1

ZFP SBS#401 = target: T4, ZFP SBS#401 (synthetic)
T4 chain: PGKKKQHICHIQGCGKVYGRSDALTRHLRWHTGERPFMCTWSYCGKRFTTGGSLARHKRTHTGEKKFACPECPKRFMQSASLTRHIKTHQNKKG
Procedure, shortened: as §1

ZFP SBS#569 = target: T5, ZFP SBS#569 (synthetic)
T5 chain: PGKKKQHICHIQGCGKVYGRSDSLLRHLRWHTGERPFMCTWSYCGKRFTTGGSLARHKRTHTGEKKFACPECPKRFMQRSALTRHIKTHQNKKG
Procedure, shortened: as §1

ZFP SBS#370 = target: T6, ZFP SBS#370 (synthetic)
T6 chain: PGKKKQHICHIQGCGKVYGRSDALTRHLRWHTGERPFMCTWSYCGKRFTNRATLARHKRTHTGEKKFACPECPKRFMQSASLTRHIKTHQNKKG
Procedure, shortened: as §1

ZFP SBS#421 = target: T7, ZFP SBS#421 (synthetic)
T7 chain: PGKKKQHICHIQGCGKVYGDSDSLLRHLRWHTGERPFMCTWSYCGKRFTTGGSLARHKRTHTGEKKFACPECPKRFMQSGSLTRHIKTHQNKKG
Procedure, shortened: as §1

ZFP SBS#373 = target: T8, ZFP SBS#373 (synthetic)
T8 chain: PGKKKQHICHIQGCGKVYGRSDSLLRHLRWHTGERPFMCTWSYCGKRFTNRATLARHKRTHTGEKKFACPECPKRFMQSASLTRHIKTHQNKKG
Procedure, shortened: as §1

ZFP SBS#403 = target: T9, ZFP SBS#403 (synthetic)
T9 chain: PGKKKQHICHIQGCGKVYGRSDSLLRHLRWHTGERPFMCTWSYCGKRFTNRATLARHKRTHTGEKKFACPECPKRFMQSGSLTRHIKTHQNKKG
Procedure, shortened: as §1

ZFP SBS#372 = target: T10, ZFP SBS#372 (synthetic)
T10 chain: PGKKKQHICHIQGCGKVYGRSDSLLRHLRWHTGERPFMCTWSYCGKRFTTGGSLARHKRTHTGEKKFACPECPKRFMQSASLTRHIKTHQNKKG
Procedure, shortened: as §1

ZFP SBS#422 = target: T11, ZFP SBS#422 (synthetic)
T11 chain: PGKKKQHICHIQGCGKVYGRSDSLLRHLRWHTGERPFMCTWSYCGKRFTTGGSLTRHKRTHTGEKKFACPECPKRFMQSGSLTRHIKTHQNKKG
Procedure, shortened: as §1

ZFP SBS#371 = target: T12, ZFP SBS#371 (synthetic)
T12 chain: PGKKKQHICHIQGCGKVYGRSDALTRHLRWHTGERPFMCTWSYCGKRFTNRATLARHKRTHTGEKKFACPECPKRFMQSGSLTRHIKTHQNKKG
Procedure, shortened: as §1

ZFP SBS#630 = ZFP SBS#630 (synthetic)
Procedure, shortened: as §1

ZFP SBS#616 = ZFP SBS#616 (synthetic)
Procedure, shortened: as §1

ZFP SBS#799 = ZFP SBS#799 (synthetic)
Procedure, shortened: as §1

ZFP SBS#768 = ZFP SBS#768 (synthetic)
Procedure, shortened: as §1

ZFP SBS#798 = ZFP SBS#798 (synthetic, UniProt P08047)
Procedure, shortened: as §1

ZFP SBS#767 = ZFP SBS#767 (synthetic, UniProt P08047)
Procedure, shortened: as §1

ZFP SBS#608 = target: T13, ZFP SBS#608 (synthetic)
T13 chain: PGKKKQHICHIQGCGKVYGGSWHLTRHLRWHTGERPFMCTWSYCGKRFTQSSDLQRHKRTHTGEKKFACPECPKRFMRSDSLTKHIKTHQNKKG
Procedure, shortened: as §1

ZFP SBS#613 = ZFP SBS#613 (synthetic)
Procedure, shortened: as §1

ZFP SBS#614 = ZFP SBS#614 (synthetic)
Procedure, shortened: as §1

ZFP SBS#620 = ZFP SBS#620 (synthetic)
Procedure, shortened: as §1

ZFP SBS#617 = target: T14, ZFP SBS#617 (synthetic)
T14 chain: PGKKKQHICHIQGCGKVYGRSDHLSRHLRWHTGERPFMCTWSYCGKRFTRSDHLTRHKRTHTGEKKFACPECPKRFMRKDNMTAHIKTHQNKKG
Procedure, shortened: as §1

ZFP SBS#618 = target: T15, ZFP SBS#618 (synthetic)
T15 chain: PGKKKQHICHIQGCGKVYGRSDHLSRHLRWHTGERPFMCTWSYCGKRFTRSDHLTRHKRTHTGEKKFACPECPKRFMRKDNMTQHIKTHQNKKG
Procedure, shortened: as §1

ZFP SBS#621 = target: T16, ZFP SBS#621 (synthetic)
T16 chain: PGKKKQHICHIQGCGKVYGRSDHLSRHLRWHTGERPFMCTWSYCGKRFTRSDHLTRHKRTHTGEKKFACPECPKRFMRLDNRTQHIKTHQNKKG
Procedure, shortened: as §1

ZFP SBS#619 = target: T17, ZFP SBS#619 (synthetic)
T17 chain: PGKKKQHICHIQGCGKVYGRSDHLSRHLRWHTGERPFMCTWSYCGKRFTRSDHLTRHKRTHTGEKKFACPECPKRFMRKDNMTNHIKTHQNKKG
Procedure, shortened: as §1

ZFP SBS#774 = target: T18, ZFP SBS#774 (synthetic)
T18 chain: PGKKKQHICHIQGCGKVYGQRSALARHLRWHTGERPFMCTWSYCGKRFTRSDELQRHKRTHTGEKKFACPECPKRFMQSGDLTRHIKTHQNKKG
Procedure, shortened: as §1

ZFP SBS#773 = ZFP SBS#773 (synthetic)
Procedure, shortened: as §1

ZFP SBS#805 = target: T19, ZFP SBS#805 (synthetic)
T19 chain: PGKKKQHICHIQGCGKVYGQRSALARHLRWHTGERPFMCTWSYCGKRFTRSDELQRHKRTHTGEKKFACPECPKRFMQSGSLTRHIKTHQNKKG
Procedure, shortened: as §1

ZFP SBS#775 = target: T20, ZFP SBS#775 (synthetic)
T20 chain: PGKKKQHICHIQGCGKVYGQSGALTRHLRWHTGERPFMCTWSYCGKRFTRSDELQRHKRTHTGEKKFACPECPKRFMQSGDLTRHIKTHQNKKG
Procedure, shortened: as §1

ZFP SBS#628 = target: T21, ZFP SBS#628 (synthetic)
T21 chain: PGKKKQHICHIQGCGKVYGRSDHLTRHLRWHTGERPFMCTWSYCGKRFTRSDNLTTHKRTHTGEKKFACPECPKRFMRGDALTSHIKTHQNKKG
Procedure, shortened: as §1

ZFP SBS#629 = target: T22, ZFP SBS#629 (synthetic)
T22 chain: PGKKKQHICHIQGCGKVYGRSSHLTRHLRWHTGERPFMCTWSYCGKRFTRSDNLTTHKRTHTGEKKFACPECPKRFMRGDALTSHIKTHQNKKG
Procedure, shortened: as §1

ZFP SBS#624 = target: T23, ZFP SBS#624 (synthetic)
T23 chain: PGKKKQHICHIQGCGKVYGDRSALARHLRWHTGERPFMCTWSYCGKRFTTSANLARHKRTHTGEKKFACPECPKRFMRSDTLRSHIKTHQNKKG
Procedure, shortened: as §1

ZFP SBS#253 = ZFP SBS#253 (synthetic)
Procedure, shortened: as §1

Sequence of ZFP SBS#767 (P08047 other isoform, or with tags, fused parts or gaps): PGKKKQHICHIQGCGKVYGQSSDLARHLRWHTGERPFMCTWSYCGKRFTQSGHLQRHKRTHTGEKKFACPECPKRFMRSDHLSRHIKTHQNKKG
Sequence of ZFP SBS#798 (P08047 other isoform, or with tags, fused parts or gaps): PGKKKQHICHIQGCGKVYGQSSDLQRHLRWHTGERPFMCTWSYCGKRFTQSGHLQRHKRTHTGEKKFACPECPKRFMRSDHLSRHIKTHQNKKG
Sequence of ZFP SBS#684 (synthetic) (chain, as listed by the source): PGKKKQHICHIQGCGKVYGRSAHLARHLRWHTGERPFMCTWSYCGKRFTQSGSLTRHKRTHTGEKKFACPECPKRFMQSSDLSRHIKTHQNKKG
Sequence of ZFP SBS#614 (synthetic) (chain, as listed by the source): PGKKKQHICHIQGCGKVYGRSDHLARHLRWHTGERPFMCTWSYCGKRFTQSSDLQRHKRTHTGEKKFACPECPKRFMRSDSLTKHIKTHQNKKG
Sequence of ZFP SBS#799 (synthetic) (chain, as listed by the source): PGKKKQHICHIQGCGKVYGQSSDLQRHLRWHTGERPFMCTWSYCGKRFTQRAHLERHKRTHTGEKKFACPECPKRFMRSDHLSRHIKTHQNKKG
Sequence of ZFP SBS#613 (synthetic) (chain, as listed by the source): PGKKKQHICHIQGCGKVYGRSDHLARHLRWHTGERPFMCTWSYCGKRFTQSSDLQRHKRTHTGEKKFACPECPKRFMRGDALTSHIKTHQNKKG
Sequence of ZFP SBS#768 (synthetic) (chain, as listed by the source): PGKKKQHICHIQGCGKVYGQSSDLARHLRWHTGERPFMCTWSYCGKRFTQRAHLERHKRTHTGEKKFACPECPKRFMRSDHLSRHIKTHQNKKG
Sequence of ZFP SBS#685 (synthetic) (chain, as listed by the source): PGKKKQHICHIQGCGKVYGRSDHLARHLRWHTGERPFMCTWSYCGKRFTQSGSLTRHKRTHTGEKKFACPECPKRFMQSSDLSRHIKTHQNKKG
Sequence of ZFP SBS#681 (synthetic) (chain, as listed by the source): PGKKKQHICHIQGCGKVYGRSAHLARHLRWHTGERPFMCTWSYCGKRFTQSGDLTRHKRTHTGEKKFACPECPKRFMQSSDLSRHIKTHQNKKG
Sequence of ZFP SBS#620 (synthetic) (chain, as listed by the source): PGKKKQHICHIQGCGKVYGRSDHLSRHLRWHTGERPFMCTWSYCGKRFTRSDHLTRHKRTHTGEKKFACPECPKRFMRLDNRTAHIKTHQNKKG

B1: GTGGCTGCAG (dsDNA)
DNA 1: GTGGCTGCAG
DNA 2: CTGCAGCCAC
Q: Which Kd (ZFP SBS#612) does the source give for B1 here?
A: Its Kd is 0.38 nM.

Q: What about the Kd (ZFP SBS#611) of the same binder?
A: The Kd was 11.5 nM.

B2: GCTGCAGGAG (dsDNA)
DNA 1: GCTGCAGGAG
DNA 2: CTCCTGCAGC
Q: What does the source list for B2?
A: Kd (ZFP SBS#683): 500 nM; Kd (ZFP SBS#684): 850 nM; Kd (ZFP SBS#685): 150 nM; Kd (ZFP SBS#681): 3000 nM; Kd (ZFP SBS#682): 90 nM

B3: GTAGTTGTG (dsDNA)
DNA 1: GTAGTTGTG
DNA 2: CACAACTAC
Q: Which Kd (ZFP SBS#369) does the source give for B3 here?
A: Its Kd is 95 nM.

Q: What about the Kd (ZFP SBS#401) of the same binder?
A: The Kd was 80 nM.

Q: What about the Kd (ZFP SBS#569) of the same binder?
A: Its Kd is 52 nM.

Q: What about the Kd (ZFP SBS#370) of the same binder?
A: The Kd was 300 nM.

Q: And the Kd (ZFP SBS#421)?
A: The Kd was 500 nM.

Q: What about the Kd (ZFP SBS#373) of the same binder?
A: The Kd was 320 nM.

Q: And the Kd (ZFP SBS#403)?
A: Its Kd is 750 nM.

Q: And the Kd (ZFP SBS#372)?
A: The Kd was 112 nM.

Q: And the Kd (ZFP SBS#422)?
A: The Kd was 200 nM.

Q: And the Kd (ZFP SBS#371)?
A: The Kd was 175 nM.

B4: CGGGGAGAGT (dsDNA)
DNA 1: CGGGGAGAGT
DNA 2: ACTCTCCCCG
Q: For B4, which Kd (ZFP SBS#630) is on record?
A: The Kd was 37.5 nM.

B5: GAGGAGGATG (dsDNA)
DNA 1: GAGGAGGATG
DNA 2: CATCCTCCTC
Q: Which Kd (ZFP SBS#616) does the source give for B5 here?
A: Its Kd is 0.08 nM.

B6: GGGGGAGCTG (dsDNA)
DNA 1: GGGGGAGCTG
DNA 2: CAGCTCCCCC
Q: With B6 as the binder, how does the Kd (ZFP SBS#799) read?
A: The Kd was 1.85 nM.

Q: And the Kd (ZFP SBS#768)?
A: Its Kd is 2000 nM.

Q: And the Kd (ZFP SBS#798)?
A: The Kd was 3 nM.

Q: And the Kd (ZFP SBS#767)?
A: Its Kd is 335 nM.

B7: TTGGCTGGGC (dsDNA)
DNA 1: TTGGCTGGGC
DNA 2: GCCCAGCCAA
Q: Which Kd (ZFP SBS#608) does the source give for B7 here?
A: Its Kd is 8 nM.

Q: And the Kd (ZFP SBS#613)?
A: Its Kd is 1.45 nM.

Q: And the Kd (ZFP SBS#614)?
A: The Kd was 2 nM.

B8: AAGGGGGGG (dsDNA)
DNA 1: AAGGGGGGG
DNA 2: CCCCCCCTT
Q: How did the Kd (ZFP SBS#620) turn out when B8 was run?
A: The Kd was 0.54 nM.

Q: And the Kd (ZFP SBS#617)?
A: Its Kd is 1 nM.

Q: And the Kd (ZFP SBS#618)?
A: Its Kd is 0.55 nM.

Q: What about the Kd (ZFP SBS#621) of the same binder?
A: Its Kd is 0.75 nM.

Q: What about the Kd (ZFP SBS#619) of the same binder?
A: The Kd was 1.34 nM.

B9: GCAGCGGTAG (dsDNA)
DNA 1: GCAGCGGTAG
DNA 2: CTACCGCTGC
Q: How did the Kd (ZFP SBS#774) turn out when B9 was run?
A: Its Kd is 258 nM.

Q: And the Kd (ZFP SBS#773)?
A: Its Kd is 1250 nM.

Q: What about the Kd (ZFP SBS#805) of the same binder?
A: Its Kd is 500 nM.

Q: What about the Kd (ZFP SBS#775) of the same binder?
A: The Kd was 265 nM.

B10: TTGTAGGGGA (dsDNA)
DNA 1: TTGTAGGGGA
DNA 2: TCCCCTACAA
Q: What does the source list for B10?
A: Kd (ZFP SBS#628): 130 nM; Kd (ZFP SBS#629): 150 nM

B11: ACGGATGTCT (dsDNA)
DNA 1: ACGGATGTCT
DNA 2: AGACATCCGT
Q: With B11 as the binder, how does the Kd (ZFP SBS#624) read?
A: The Kd was 7 nM.

B12: GGATGGGGG (dsDNA)
DNA 1: GGATGGGGG
DNA 2: CCCCCATCC
Q: For B12, which Kd (ZFP SBS#253) is on record?
A: Its Kd is 0.75 nM.
